For 2 substances, stoichiometry N results are on record in doi:10.1101/677500.

For assay [1], the target named is GST-EhPKDL (Entamoeba histolytica Protein kinase D like kinase, recombinant) (Entamoeba histolytica). The experiment in a line: SEC.
Assay [2] addresses EhPKDL-FITC (Entamoeba histolytica). Put plainly: other fluorescence titration.

“GST-EhPKDL (Entamoeba histolytica Protein kinase D like kinase, recombinant) (enzyme)”: the stoichiometry N – broadly, a count of units in the complex or per binding partner – in assay [1] turned out to be 2.
On to actin-TRITC (natural protein), for which, in assay [2], the stoichiometry N was 1 molar ratio.
